Test results: paper PMC10781630, “Structural basis of Gabija anti-phage defence and viral immune evasion” (Nature, 2023)

B3: Bacillus cereus VD045 GajA, co-expressed with GajB, tag removed (subunit of the GajAB complex) (enzyme)
chain: KFSNITIKNFRNFEKVNINLDNKNVIFGMNDIGKTNFLYALRFLLDKEIRKFGFNKSDYHKHDTSKKIEIILTLDLSNYEKDEDTKKLISVVKGARTSANADVFYIALESKYDDKELYGNIILKWGSELDNLIDIPGRGNINALDNVFKVIYINPLVDLDKLFAQNKKYIFEESQGNESDEGILNNIKSLTDQVNQQIGEMTIIKGFQQEITSEYRSLKKEEVSIELKSEMAIKGFFSDIIPYIKKDGDSNYYPTSGDGRRKMLSYSIYNYLAKKKYEDKIVIYLIEEPEISLHRSMQIALSKQLFEQSTYKYFFLSTHSPELLYEMDNTRLIRVHSTEKVVCSSHMYNVEEAYGSVKKKLNKALSSALFAERVLLIEGPSEKILFEKVLDEVEPEYELNGGFLLEVGGTYFNHYVCTLNDLGITHIIKTDNDLKSKKGKKGVYELLGLNRCLNLLGRENLDEITIDIPEDIKGKKKKERLNERKKEIFKQYKNEVGEFLGERIYLSEIDLENDLYSAIGESMKRIFENEDPVHYLQKSKLFNMVELVNNLSTKDCFDVFEHEKFACLKELVGSDRG
notes: GajA, Bacillus cereus VD045, IMG ID 2519684552; the 5×GS linker may stay on GajA after SENP2 cleavage; also called BcGajA; source: E. coli BL21(DE3) strains, co-expressed with GajB, purified (Ni-NTA, SUMO2 cleavage by hSENP2, SEC); not shown: 6×His-SUMO2-5×GS, N-terminal, cleaved

Experiments:
[1] = molecular target: Bacillus cereus VD045 GajB, untagged, co-expressed with tagged GajA (Bacillus cereus VD045) (UniProt J8HQ06); assay: crystal structure; co-expressed and co-purified GajAB, 3.0 Å; hanging drop, 18 °C, 100 mM HEPES-NaOH pH 7.5, 2.4% PEG-400, 2.2 M ammonium sulfate
[2] = molecular target: B3; assay: as above; settings: both partners purified
[3] = molecular target: the molecule itself; assay: SEC; 16/600 S200 (Superdex 200); recombinant BcGajA and BcGajB each run alone
[4] = molecular target: the molecule itself; assay: crystal structure; co-expressed and co-purified GajAB, 3.0 Å; hanging drop, 18 °C, 100 mM HEPES-NaOH pH 7.5, 2.4% PEG-400, 2.2 M ammonium sulfate
[5] = molecular target: the molecule itself; assay: cryo-EM structure; SUMO2-GajAB–Gad1 (Phi3T) co-complex, 1 mg ml^-1, 2.57 Å D2 symmetry map
[6] = molecular target: T1, SUMO2-tagged GajAB complex (Bacillus cereus VD045), 4:4 (Bacillus cereus VD045, UniProt J8H9C1 2-578; J8HQ06 1-494); assay: as above; settings: both partners purified
T1 construct: GajA, Bacillus cereus VD045, IMG ID 2519684552; GajB, Bacillus cereus VD045, IMG ID 2519684553; also called SUMO2-GajAB; SUMO2-tagged BcGajAB; source: E. coli, co-expressed, purified (Ni-NTA, SEC); not shown: 6×His-SUMO2, N-terminal, kept; copies: 4 + 4
T1 sequence 1: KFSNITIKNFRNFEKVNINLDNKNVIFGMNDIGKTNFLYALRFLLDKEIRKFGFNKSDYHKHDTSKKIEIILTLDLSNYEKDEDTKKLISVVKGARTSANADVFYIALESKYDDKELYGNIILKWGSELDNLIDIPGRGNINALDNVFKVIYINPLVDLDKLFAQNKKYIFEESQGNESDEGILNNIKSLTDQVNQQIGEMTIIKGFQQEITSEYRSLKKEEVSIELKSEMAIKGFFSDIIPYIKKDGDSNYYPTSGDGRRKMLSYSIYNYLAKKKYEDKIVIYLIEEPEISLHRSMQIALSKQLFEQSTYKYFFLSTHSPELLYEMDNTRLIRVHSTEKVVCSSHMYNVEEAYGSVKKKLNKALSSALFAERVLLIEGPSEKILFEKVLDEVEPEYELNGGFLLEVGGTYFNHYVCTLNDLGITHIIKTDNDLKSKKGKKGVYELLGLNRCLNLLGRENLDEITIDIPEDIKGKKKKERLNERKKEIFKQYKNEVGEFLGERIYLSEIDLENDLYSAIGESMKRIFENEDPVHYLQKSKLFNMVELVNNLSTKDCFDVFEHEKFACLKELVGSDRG
T1 sequence 2: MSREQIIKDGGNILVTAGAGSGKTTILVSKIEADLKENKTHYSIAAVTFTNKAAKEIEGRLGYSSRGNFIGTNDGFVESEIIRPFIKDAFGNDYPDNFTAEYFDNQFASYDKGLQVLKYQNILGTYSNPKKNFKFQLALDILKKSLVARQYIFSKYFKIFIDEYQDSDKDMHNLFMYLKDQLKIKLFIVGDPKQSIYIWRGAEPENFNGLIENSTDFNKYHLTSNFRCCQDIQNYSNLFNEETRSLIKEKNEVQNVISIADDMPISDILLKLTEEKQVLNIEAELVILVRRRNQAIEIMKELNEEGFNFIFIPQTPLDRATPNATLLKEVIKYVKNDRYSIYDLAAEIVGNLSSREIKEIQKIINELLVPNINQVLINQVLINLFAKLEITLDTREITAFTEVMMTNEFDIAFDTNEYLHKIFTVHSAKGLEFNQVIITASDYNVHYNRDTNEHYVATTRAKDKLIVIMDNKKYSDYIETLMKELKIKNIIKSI

[7] = molecular target: T2, GajA E379A;GajB (Bacillus cereus VD045;Bacillus cereus …, UniProt J8H9C1;J8HQ06 1-578;1-494, E379A|); assay: EMSA; 5 mM Ca2+; settings: protein: recombinant;recombinant; tags: N-terminal 6xHis-SUMO2-5xGS, cleaved by SENP2;none in co-expressed complex; chain copies: 4;4; label: none (ethidium bromide post-stain)
T2 sequence 1: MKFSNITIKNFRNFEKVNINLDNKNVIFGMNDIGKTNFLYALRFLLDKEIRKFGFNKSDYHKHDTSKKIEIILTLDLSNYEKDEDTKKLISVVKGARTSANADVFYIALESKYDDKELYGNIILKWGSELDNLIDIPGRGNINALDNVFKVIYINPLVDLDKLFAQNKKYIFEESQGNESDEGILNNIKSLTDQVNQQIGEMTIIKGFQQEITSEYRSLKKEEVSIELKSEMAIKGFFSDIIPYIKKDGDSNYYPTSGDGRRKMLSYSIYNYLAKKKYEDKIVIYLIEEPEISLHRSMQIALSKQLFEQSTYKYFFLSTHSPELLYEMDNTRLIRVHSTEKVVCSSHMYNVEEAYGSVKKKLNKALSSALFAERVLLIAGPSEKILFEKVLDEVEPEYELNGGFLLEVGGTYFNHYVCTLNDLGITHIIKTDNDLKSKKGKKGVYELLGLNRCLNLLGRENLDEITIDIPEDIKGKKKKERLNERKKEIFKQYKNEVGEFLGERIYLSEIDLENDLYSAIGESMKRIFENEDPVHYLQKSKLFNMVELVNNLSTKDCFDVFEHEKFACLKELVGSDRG
T2 sequence 2: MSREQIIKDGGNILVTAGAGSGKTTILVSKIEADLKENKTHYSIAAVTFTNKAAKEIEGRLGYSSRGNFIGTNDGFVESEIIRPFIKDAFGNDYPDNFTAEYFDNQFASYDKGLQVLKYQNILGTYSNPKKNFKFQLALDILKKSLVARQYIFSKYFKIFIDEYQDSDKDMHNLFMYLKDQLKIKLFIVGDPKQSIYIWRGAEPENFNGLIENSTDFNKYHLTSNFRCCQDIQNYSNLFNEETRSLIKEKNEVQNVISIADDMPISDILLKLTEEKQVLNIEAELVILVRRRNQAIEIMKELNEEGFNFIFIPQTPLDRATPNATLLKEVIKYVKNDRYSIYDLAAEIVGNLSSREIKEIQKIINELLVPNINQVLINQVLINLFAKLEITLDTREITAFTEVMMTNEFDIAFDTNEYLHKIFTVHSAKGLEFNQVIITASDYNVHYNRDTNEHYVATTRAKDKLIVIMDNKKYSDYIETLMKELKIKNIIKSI

[8] = molecular target: T3, GajA;GajB (Bacillus cereus VD045;Bacillus cereus …, UniProt J8H9C1;J8HQ06 1-578;1-494, |); assay: EMSA; 5 mM Ca2+; settings: protein: recombinant;recombinant; chain copies: 4;4; label: none (ethidium bromide post-stain)
T3 sequence 1: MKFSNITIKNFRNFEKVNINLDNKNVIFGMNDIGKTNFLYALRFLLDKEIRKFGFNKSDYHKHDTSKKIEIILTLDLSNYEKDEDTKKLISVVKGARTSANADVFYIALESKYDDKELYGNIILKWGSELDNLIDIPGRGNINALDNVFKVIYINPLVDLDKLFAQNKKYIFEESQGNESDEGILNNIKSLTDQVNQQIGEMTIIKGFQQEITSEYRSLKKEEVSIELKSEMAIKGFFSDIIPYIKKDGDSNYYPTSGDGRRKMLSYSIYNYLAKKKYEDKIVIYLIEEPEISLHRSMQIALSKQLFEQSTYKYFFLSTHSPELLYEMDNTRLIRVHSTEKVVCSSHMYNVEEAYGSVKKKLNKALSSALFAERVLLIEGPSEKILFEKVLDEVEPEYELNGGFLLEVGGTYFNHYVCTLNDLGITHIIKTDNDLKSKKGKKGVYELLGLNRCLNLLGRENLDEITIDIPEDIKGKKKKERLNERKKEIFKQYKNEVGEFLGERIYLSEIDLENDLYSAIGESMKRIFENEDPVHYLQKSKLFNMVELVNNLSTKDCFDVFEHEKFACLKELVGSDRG
T3 sequence 2: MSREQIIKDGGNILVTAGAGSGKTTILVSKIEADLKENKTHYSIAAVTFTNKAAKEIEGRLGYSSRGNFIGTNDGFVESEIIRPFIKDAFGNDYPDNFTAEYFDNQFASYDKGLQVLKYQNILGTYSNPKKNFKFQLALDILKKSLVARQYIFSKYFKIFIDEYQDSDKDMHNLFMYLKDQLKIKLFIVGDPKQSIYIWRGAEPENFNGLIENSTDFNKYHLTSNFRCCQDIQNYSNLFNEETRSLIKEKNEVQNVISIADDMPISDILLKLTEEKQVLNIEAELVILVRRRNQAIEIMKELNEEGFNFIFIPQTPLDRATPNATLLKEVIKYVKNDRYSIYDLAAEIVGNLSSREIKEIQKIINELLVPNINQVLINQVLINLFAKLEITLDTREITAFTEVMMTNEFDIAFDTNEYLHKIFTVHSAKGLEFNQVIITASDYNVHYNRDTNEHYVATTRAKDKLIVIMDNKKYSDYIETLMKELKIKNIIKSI

B1: Bacillus cereus VD045 GajB, untagged, co-expressed with tagged GajA (enzyme)
chain: MSREQIIKDGGNILVTAGAGSGKTTILVSKIEADLKENKTHYSIAAVTFTNKAAKEIEGRLGYSSRGNFIGTNDGFVESEIIRPFIKDAFGNDYPDNFTAEYFDNQFASYDKGLQVLKYQNILGTYSNPKKNFKFQLALDILKKSLVARQYIFSKYFKIFIDEYQDSDKDMHNLFMYLKDQLKIKLFIVGDPKQSIYIWRGAEPENFNGLIENSTDFNKYHLTSNFRCCQDIQNYSNLFNEETRSLIKEKNEVQNVISIADDMPISDILLKLTEEKQVLNIEAELVILVRRRNQAIEIMKELNEEGFNFIFIPQTPLDRATPNATLLKEVIKYVKNDRYSIYDLAAEIVGNLSSREIKEIQKIINELLVPNINQVLINQVLINLFAKLEITLDTREITAFTEVMMTNEFDIAFDTNEYLHKIFTVHSAKGLEFNQVIITASDYNVHYNRDTNEHYVATTRAKDKLIVIMDNKKYSDYIETLMKELKIKNIIKSI
notes: GajB, Bacillus cereus VD045, IMG ID 2519684553; also called BcGajB; source: co-purified (Ni-NTA, SEC) or in lysate
- stoichiometry N [1]: 2
- stoichiometry N [2]: 1 GajB per GajA (4:4)

B2: Bacillus cereus VD045 GajA (Gabija protein A), expressed alone (enzyme)
chain: KFSNITIKNFRNFEKVNINLDNKNVIFGMNDIGKTNFLYALRFLLDKEIRKFGFNKSDYHKHDTSKKIEIILTLDLSNYEKDEDTKKLISVVKGARTSANADVFYIALESKYDDKELYGNIILKWGSELDNLIDIPGRGNINALDNVFKVIYINPLVDLDKLFAQNKKYIFEESQGNESDEGILNNIKSLTDQVNQQIGEMTIIKGFQQEITSEYRSLKKEEVSIELKSEMAIKGFFSDIIPYIKKDGDSNYYPTSGDGRRKMLSYSIYNYLAKKKYEDKIVIYLIEEPEISLHRSMQIALSKQLFEQSTYKYFFLSTHSPELLYEMDNTRLIRVHSTEKVVCSSHMYNVEEAYGSVKKKLNKALSSALFAERVLLIEGPSEKILFEKVLDEVEPEYELNGGFLLEVGGTYFNHYVCTLNDLGITHIIKTDNDLKSKKGKKGVYELLGLNRCLNLLGRENLDEITIDIPEDIKGKKKKERLNERKKEIFKQYKNEVGEFLGERIYLSEIDLENDLYSAIGESMKRIFENEDPVHYLQKSKLFNMVELVNNLSTKDCFDVFEHEKFACLKELVGSDRG
notes: GajA, Bacillus cereus VD045, IMG ID 2519684552; gene codon-optimized and synthesized; the C-terminal 6×His construct is the only GajA-alone construct described; also called BcGajA; GajA alone; source: E. coli BL21(DE3) strains, purified (Ni-NTA, SEC); also co-expressed with Shewanella phage 1/4 Gad1, in lysate for Ni-NTA co-purification; not shown: 6×His, C-terminal, kept
- stoichiometry N [3]: 4

Binder: B3
- stoichiometry N [4]: 4

B4: Bacillus phage Phi3T Gad1 (Gabija anti-defence 1) (natural protein)
chain: MKLIGIKTSNCFLVSDNIEGKRYFHSQLDELLFDGKRATETYKSDWFKLEKEPSVIEKQMPAKKINHRYELKEGFQESELTPKVIKASYIGEDSEYYEVKGLYDLKFEEIPQQNEKIEFEMNVIEEIDGELKLQSHNFNLNYNLLDRIQTHPMLLETKPCYLSQEESYKIIRNHIKANINPKFARITSDYDFCLTVVKVLELYKPHEYIVDLNAMYKRRKPKLEKRFQTKREVEIYKVAPKAYQSYPIVEPFSGKDVEDLKSNIKKFLDDLMAKINEPLVECKCCKGRGVILNEN
notes: Gad1, Bacillus phage Phi3T, 35 kDa; Eight copies stand in the 4:4:8 GajAB–Gad1 complex; source: E. coli, co-expressed with SUMO2-GajAB (pBAD vector), co-purified (Ni-NTA, SEC)
- stoichiometry N [5]: 8
- stoichiometry N [6]: 8 Gad1 per 4:4 GajAB complex

B5: 56-bp target dsDNA (dsDNA)
DNA 1: TTTTTTTTTTTTTTTTTAATAACCCGGTTATTTTTTTTTTTTTTTTTTTTTTTTTT
DNA 2: AAAAAAAAAAAAAAAAAAAAAAAAAATAACCGGGTTATTAAAAAAAAAAAAAAAAA
- binding result [7]: binds
- binding result [8]: binds

B6: 56-bp scrambled dsDNA (dsDNA)
DNA 1: TTTTTTTTTTTTTTTTTGACATTACATTCAGTTTTTTTTTTTTTTTTTTTTTTTTT
DNA 2: AAAAAAAAAAAAAAAAAAAAAAAAACTGAATGTAATGTCAAAAAAAAAAAAAAAAA
- binding result [7]: binds
